# Laboratory results from the supplement of paper PMC9732359.
# ± gives the uncertainty stated by the source.
# Experiment: protein stability index of a GFP-peptide fusion (yeast GPS) (PSI 1-4); higher = more stable; sorted into four equal gates, so the index is relative within each strain
# Summary of the method: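 Yeast carrying a pooled library were grown to mid-log phase in leucine-free medium. Each library plasmid expresses Cherry and has a tiled 17-residue yeast protein peptide fused downstream of GFP. Cells were sorted into four equal gates by GFP/Cherry ratio, and plasmids from each gate were PCR-amplified, Illumina-sequenced and assigned to strains by barcode. Summing, across gates, the read frequency times the gate number gave each peptide's protein stability index.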
Sequence,protein stability index (doa10∆),protein stability index (pdr5∆),protein stability index (san1∆),protein stability index (ubr1∆)
NVTSSGDHNKLRSTIAN [YML103C/NUP188],2.43 ± 0.051,2.48 ± 0.062,2.35 ± 0.071,2.02 ± 0.033
NWIKPSDSEIPPLLVYK [PRP8],2.16 ± 0.065,2.24 ± 0.056,2.21 ± 0.075,2.12 ± 0.063
NWLSIFNDFSNIKTSEW [REC8],2.67 ± 0.082,2.95 ± 0.061,2.94 ± 0.091,2.91 ± 0.085
NWYKSKKKAFTKYSAKY [RPL3],3.23 ± 0.16,3.25 ± 0.1,3.07 ± 0.079,3.01 ± 0.045
NYDIITASSLAHDYNND [YML103C/NUP188],2.64 ± 0.063,2.05 ± 0.075,2.61 ± 0.087,2.33 ± 0.056
NYHPNASITPYKLVNKN [RPN4],1.84 ± 0.063,2.38 ± 0.078,2.59 ± 0.083,2.05 ± 0.068
PAGFTHKLSNWLFGWND [YDL088C/ASM4],2.86 ± 0.073,3.07 ± 0.067,3.33 ± 0.053,2.96 ± 0.043
PAGHAGNPTNISSPIVA [YDL088C/ASM4],2.52 ± 0.068,2.71 ± 0.065,2.67 ± 0.064,3.02 ± 0.046
PAIPPVIDLEKIKFDES [BRR2],2.85 ± 0.093,2.84 ± 0.093,2.67 ± 0.086,2.77 ± 0.082
PANHLQSDFCLSWCPSR [YGL100W/SEH1],1.8 ± 0.18,2.05 ± 0.12,2.43 ± 0.16,2.4 ± 0.06
PCVEDGFVIQDRETALD [RPB2],3.17 ± 0.088,3.18 ± 0.11,3.16 ± 0.19,3.2 ± 0.078
PDAQNELPKFILSDSPL [DIS3],2.87 ± 0.048,3.03 ± 0.063,2.87 ± 0.044,2.92 ± 0.079
PDCKIKIAHGTTTLAFR [PRE2],2.64 ± 0.077,2.72 ± 0.056,2.65 ± 0.066,2.71 ± 0.064
PDDEKFTDENTIVLSLN [RPC40],3.46 ± 0.13,3.6 ± 0.085,3 ± 0.16,3.47 ± 0.087
PDIADIPRTFRTPVPST [SNF5],2.12 ± 0.093,1.96 ± 0.059,2.04 ± 0.064,2.01 ± 0.072
PDKDYLLSIPISCPLIG [FAS1],1.28 ± 0.19,1.64 ± 0.13,1.25 ± 0.19,1.07 ± 0.077
PDLQFIVISLKNTMFEK [SMC1],2.83 ± 0.082,2.68 ± 0.071,3.01 ± 0.05,2.77 ± 0.045
PDPNFENSIGYNNRKCW [PRP8],3.02 ± 0.098,2.97 ± 0.1,2.98 ± 0.21,3.11 ± 0.12
PDRQSMDSRVAHGNILI [SRB5],3.14 ± 0.09,3.12 ± 0.064,3.02 ± 0.058,3.14 ± 0.05
